Data from patent US20260078398A1, “PLANTS GENETICALLY ENGINEERED FOR INCREASED WATER USE EFFICIENCY AND CARBON INTAKE AND METHODS FOR MAKING AND USING THEM” (The Regents of the University of California, priority 2022, published 2026).

Key:
Brachypodium distachyon = assay: stomatal conductance after ABA added to the transpiration stream (gas exchange analyzer); format: in vivo; conditions: 2 μM ABA
Method: We next investigated stomatal closure in response to abscisic acid.
(top infrared thermal image, bottom photo of the same plants). • (B) Stomatal density and (C) stomatal index were determined using leaf imprints created of the 4th true leaf of plants with 3 independent replicates plants per genotype with 4 images per plant. Circles represent counts per each image while diamonds are the average per each plant. Error bars represent SEM while p-values were obtained from two-tailed t-tests comparing mutant to WT. • (D) Stomatal conductance was quantified using a gas exchange analyzer. […] Data shown are the average of n=3±SEM plants per genotype using 1 leaf per experiment and genotype.
FIG. 14 (or FIG. 8 of Example 2): Bdmpk5 CRISPR Alleles Show Strong CO2 insensitivity but functional ABA responses. • (A, B) 5 to 6 week old plants were analyzed in time-resolved stomatal conductance analyses. • (A) CRISPR alleles show strongly impaired stomatal responses to CO2 shifts. […] Data shown are the average of n=3±SEM experiments using one leaf per experiment and genotype. • (C,D) Stomatal density (C) and stomatal index (D) were determined using leaf imprints created of the 4th true leaf with 3 replicate plants and genotype. […]

[1] = target: T1, GST-CBC1 (recombinant Arabidopsis Raf-like kinase CBC1 with GST tag)
T1 sequence (Q9SSA4 whole entry, looked up): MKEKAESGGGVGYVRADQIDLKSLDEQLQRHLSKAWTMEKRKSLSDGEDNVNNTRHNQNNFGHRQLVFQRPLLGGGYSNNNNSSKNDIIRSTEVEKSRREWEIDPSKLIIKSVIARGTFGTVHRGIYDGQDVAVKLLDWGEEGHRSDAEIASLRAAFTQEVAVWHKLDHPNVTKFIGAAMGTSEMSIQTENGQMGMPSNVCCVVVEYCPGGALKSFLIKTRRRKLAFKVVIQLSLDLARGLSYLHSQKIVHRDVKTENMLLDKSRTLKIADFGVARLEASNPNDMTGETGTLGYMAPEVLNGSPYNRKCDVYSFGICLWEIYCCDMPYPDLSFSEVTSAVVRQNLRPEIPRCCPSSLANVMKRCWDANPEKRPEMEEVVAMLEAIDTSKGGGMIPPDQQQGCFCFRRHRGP

[2] = target: T2, GST-MPK4 (recombinant Arabidopsis MAP kinase MPK4 with GST tag)
T2 chain: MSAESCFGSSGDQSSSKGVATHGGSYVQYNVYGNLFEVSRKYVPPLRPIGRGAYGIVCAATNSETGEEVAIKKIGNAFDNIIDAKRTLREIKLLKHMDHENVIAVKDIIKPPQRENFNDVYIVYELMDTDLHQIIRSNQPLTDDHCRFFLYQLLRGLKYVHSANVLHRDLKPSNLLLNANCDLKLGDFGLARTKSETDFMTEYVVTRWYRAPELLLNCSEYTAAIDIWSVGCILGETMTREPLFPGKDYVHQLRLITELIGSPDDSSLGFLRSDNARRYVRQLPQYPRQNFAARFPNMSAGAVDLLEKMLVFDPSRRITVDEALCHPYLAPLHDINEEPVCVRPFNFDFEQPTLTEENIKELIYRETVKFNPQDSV

[3] = tested on: MPK4/12, HT1 and CBC1 recombinant proteins; assay: in vitro phosphorylation assay: NaHCO3-dependent down-regulation of HT1-mediated CBC1 phosphorylation; format: biochemical, Arabidopsis; conditions: isoform replaces wild type protein or is added; 20 mM NaHCO3 vs NaCl control, 30 min
Method: We tested whether this HT1-mediated activation of CBC1 is inhibited by CO2/bicarbonate by adding NaHCO3 in in vitro phosphorylation reactions. […]
FIG. 2. […] Histone was used as an artificial protein kinase substrate. • (B) MPK4, HT1 and CBC1 proteins were incubated with NaHCO3 at the indicated concentrations for 30 min, and in vitro phosphorylation assays were performed. • (C) CBC1 band intensities as shown in (B) were measured using IMAGEJ™, n=4 experiments, error bars show ±S.D. • (D) MPK4, HT1 and CBC1 proteins were incubated in reaction buffers adjusted at different pH (6.5 to 8.5) for 30 min, and in vitro phosphorylation assays were performed. • (E) CBC1 band intensities and the density-ratios of ‘+NaHCO3’ to ‘—NaHCO3’ (=+NaCl controls) for each pH condition
FIG. 3. […] Ambient CO2 concentrations are indicated by the top bars. n=7 experiments, error bars show ±SEM. • (C) Recombinant HT1 (wild type, HT1-G89R or HT1-R173Q) and CBC1 proteins were incubated with MPK4 in the presence or absence of 20 mM NaHCO3 or 20 mM NaCl (−controls) for 30 min, and in vitro phosphorylation assays were performed. • (D) Recombinant MPK12, CBC1 and HT1 (WT or R102K) proteins were incubated with or without 20 mM NaHCO3 or 20 mM NaCl (−controls) for 30 min, and in vitro phosphorylation assays were performed. Histone was used as an artificial kinase substrate. • (E) HT1 (WT or A109V) proteins were used for in vitro phosphorylation assays. Proteins were incubated with or without 20 mM NaHCO3 or 20 mM NaCl (−controls) for 30 min. • (F) Stomatal conductances were analyzed using intact plants of Arabidopsis (Col-0 (WT), cbc1 cbc2, ht1-A109V and cbc1 cbc2 ht1-A109V). CO2 concentration changes were applied as indicated on top (p.p.m.). […]

MPK4 and HT1 = assay: in vitro pull-down assay, His-HT1 with GST-MPK4; format: binding, Arabidopsis; conditions: pull-down with or without 20 mM NaHCO3
Method: We therefore investigated a possible binding between MPK4 and HT1 and the effect of HCO3^−.
FIG. 4. […] CO2 concentration changes were applied as indicated on top (p.p.m.). n=6 experiments, error bars show ±SEM. • (J) Model of plant stomatal CO2 sensor and signaling (see text).
FIG. 6. […] Precipitated proteins were washed with buffers supplemented with NaHCO3 at the indicated concentrations (0, 2 or 20 mM). See FIG. 4d for an independent experiment. To control for effects of Na^+, 20 mM NaCl (0 mM NaHCO3) for lanes 1 and 4 were included in the buffers; and 18 mM NaCl (2 mM NaHCO3) for lane 3 were included in buffer.

BdMPK5, HT1 and CBC1 = assay: in vitro phosphorylation assay with GST-CBC1, His-HT1 and His-BdMPK5; format: biochemical, Brachypodium distachyon; conditions: with or without 20 mM NaHCO3, n=2
Method: Furthermore, this activation of CBC1 is inhibited by elevated CO2/bicarbonate only when HT1, CBC1 and MPK4 or MPK12 are included in the reconstituted reaction (Takahashi et al., 2022). […] The high CO2/bicarbonate response was similar to high CO2 responses found for AtMPK4 and AtMPK12, but not for the close homolog AtMPK11 (Takahashi et al., 2022).
In vitro phosphorylation assays were performed using GST-CBC1, His-HT1 and His-BdMPK5 (WT or D90N) recombinant proteins with or without 20 mM NaHCO3. Phosphorylation levels of CBC1 (top) and Coomassie brilliant blue (CBB)-stained gels (bottom) are shown. • (B) AlphaFold2-predicted complex of BdMPK5 with HT1. BdMPK5 is shown in red, while HT1 is shown in blue. The BdMPK5-D90 residue, which is mutant in chill1, is colored green, and is predicted, based on the wildtype BdMPK5-HT1 simulation, to lie at the interface of BdMPK5 and HT1.

## CC1=CC(=O)CC(C)(C)[C@@]1(O)/C=C/C(C)=C\C(=O)O [ABA, abscisic acid]
Brachypodium distachyon; T3 BdMPK5 CRISPR lines
  stomatal conductance response to ABA: steep decline in conductance
Brachypodium distachyon; chill1 leaves, 5-week old
  stomatal conductance response to ABA: responded similarly to WT

B1: His-HT1 (recombinant Arabidopsis HT1 protein kinase, wild type, with His tag) (protein)
chain: MSGLCFNPFRLRWSLRSKLPLEPSLPNLPCNPSSSKTNRYAEAETMEKKRFDSMESWSMILESENVETWEASKGEREEWTADLSQLFIGNKFASGAHSRIYRGIYKQRAVAVKMVRIPTHKEETRAKLEQQFKSEVALLSRLFHPNIVQFIAACKKPPVYCIITEYMSQGNLRMYLNKKEPYSLSIETVLRLALDISRGMEYLHSQGVIHRDLKSNNLLLNDEMRVKVADFGTSCLETQCREAKGNMGTYRWMAPEMIKEKPYTRKVDVYSFGIVLWELTTALLPFQGMTPVQAAFAVAEKNERPPLPASCQPALAHLIKRCWSENPSKRPDFSNIVAVLEKYDECVKEGLPLTSHASLTKTKKAILDHLKGCVTSISSPFSSSSVPVNA
[1]
  CBC1 phosphorylation, in vitro phosphorylation assay with radioactive 32P-ATP (FIG. 5): We confirmed CBC1 phosphorylation by HT1 using recombinant His-HT1 and GST-CBC1 proteins

B2: HT1-R173Q (protein)
chain: MSGLCFNPFRLRWSLRSKLPLEPSLPNLPCNPSSSKTNRYAEAETMEKKRFDSMESWSMILESENVETWEASKGEREEWTADLSQLFIGNKFASGAHSRIYRGIYKQRAVAVKMVRIPTHKEETRAKLEQQFKSEVALLSRLFHPNIVQFIAACKKPPVYCIITEYMSQGNLQMYLNKKEPYSLSIETVLRLALDISRGMEYLHSQGVIHRDLKSNNLLLNDEMRVKVADFGTSCLETQCREAKGNMGTYRWMAPEMIKEKPYTRKVDVYSFGIVLWELTTALLPFQGMTPVQAAFAVAEKNERPPLPASCQPALAHLIKRCWSENPSKRPDFSNIVAVLEKYDECVKEGLPLTSHASLTKTKKAILDHLKGCVTSISSPFSSSSVPVNA
[2]
  NaHCO3-dependent CBC1 downregulation, in vitro phosphorylation assay with MPK4 and CBC1 (FIG. 3C): the R173Q mutation partly impaired the NaHCO3-dependent CBC1 downregulation
[3]
  NaHCO3-mediated down-regulation of CBC1 phosphorylation/activity with the protein isoform in the reaction: partly impaired the NaHCO3-dependent CBC1 downregulation
MPK4 and HT1
  HCO3- dependent binding of HT1 isoform with MPK4: partially interact with MPK4

B3: BdMPK5: recombinant Brachypodium distachyon MAP kinase BdMPK5, SEQ ID NO: 13 (protein)
chain: MRMEGGGAGPAAAAAAGGAHGLGEAQIKGTLTHGGRYVQYNVYGNLFEVSAKYVPPIRPVGRGACGIICAAINVQTREEVAIKKIGNAFDNQIDAKRTLREVKLLRHMNHENVISIKDIIRPPRRENFNDVYIVYELMDTDLHHLLRSNQPLTDDHCQYFLYQVLRGLKYVHSANVLHRDLRPSNLLLNAKCDLKIGDFGLARTTTETDFMMEYVVTRWYRAPELLLNCSEYTGAIDMWSVGCILGEIATREPLFPGKDYVHQLRLITELLGSPDDTSLGFLRSDNARRYVRSLPQYPKQQFRSRFPNMSSGAMDLLERMLVFDPNKRITVDEALCHPYLASLHEINDEPVCPAPFSFDFEQPSFTEEDIKELIWRESVKFNPEPIH
modifications: Synthetic: Bd21-3 (WT) BdMPK5
BdMPK5, HT1 and CBC1
  high CO2/bicarbonate-mediated down-regulation of CBC1 phosphorylation with BdMPK5 protein: high CO2/bicarbonate-induced down-regulation of the CBC1 protein kinase activity

B4: BdMPK5-D90N: chill1 variant of BdMPK5 protein, SEQ ID NO: 14 (protein)
chain: MRMEGGGAGPAAAAAAGGAHGLGEAQIKGTLTHGGRYVQYNVYGNLFEVSAKYVPPIRPVGRGACGIICAAINVQTREEVAIKKIGNAFNNQIDAKRTLREVKLLRHMNHENVISIKDIIRPPRRENFNDVYIVYELMDTDLHHLLRSNQPLTDDHCQYFLYQVLRGLKYVHSANVLHRDLRPSNLLLNAKCDLKIGDFGLARTTTETDFMMEYVVTRWYRAPELLLNCSEYTGAIDMWSVGCILGEIATREPLFPGKDYVHQLRLITELLGSPDDTSLGFLRSDNARRYVRSLPQYPKQQFRSRFPNMSSGAMDLLERMLVFDPNKRITVDEALCHPYLASLHEINDEPVCPAPFSFDFEQPSFTEEDIKELIWRESVKFNPEPIH
modifications: Synthetic: Chill1 BdMPK5
BdMPK5, HT1 and CBC1
  high CO2/bicarbonate-mediated down-regulation of CBC1 phosphorylation with BdMPK5 protein: abrogated the high CO2/bicarbonate-mediated downregulation of CBC1 phosphorylation
